We go through two molecules from paper PMC11937253 (2025).

Read-outs that look alike come from different tables or passages of the source.

The term Kd denotes the equilibrium constant for the complex coming apart.

Test in all cases: SPR
For orientation: In SPR one partner is held on a chip, and binding of the other changes the refractive index at the surface.

The target of one assay is 7D11.
The target of assay [1] is T1, recombinant MPXV [change] protein (ectodomain, His-tagged) (mpox virus (MPXV), isolate …).
Assay [2] addresses T1, recombinant MPXV [change] protein …. This is another data set of the same source.

B1: recombinant MPXV [change] protein (ectodomain, His-tagged) (domain or fragment)
chain: MGAAASIQTTVNTLSERISSKLEQEANASAQTKCDIEIGNFYIRQNHGCNITVKNMCSADADAQLDAVLSAATETYSGLTPEQKAYVPAMFTAALNIQTSVNTVVRDFENYVKQTCNSSAVVDNKLKIQNVIIDECYGAPGSPTNLEFINTGSSKGNCAIKALMQLTTKATTQIAPRQVAG
In turn, B1 gave a Kd with 7D11 of 0.0198 nM.

B2: nanobody M1R-01 (monovalent) (VHH)
VHH: QVQLVESGGGLVQAGGSLRLSCAASGFIFHNFDMGWYRQAPGKEREFVAAISDNGRSTYYADSVKGRFTISRDNAKNTVYLQMNSLKPEDTAVYYCAVAWLSIPDLAEWYDYWGQGTQVTVSS
As to B2, the dissociation constant (Kd) in assay [1] is 40.4 nM; in assay [2] it was 40 nM.
